We go through two molecules from PMC3408419 (Molecular Biology of the Cell, 2012).

Where “and” joins values, the source holds several entries; their conditions need not be identical. Identical values can stand only once.

Assay [1] concerns the target MBP-Sec16-mOrange (S. cerevisiae) (UniProt P48415). Nature of the assay: single-molecule photobleaching.
Another assay addresses Sec23/24 complex (S. cerevisiae, UniProt P15303;P40482). Kind of assay: liposome flotation.

Sequence of Sec23/24 complex (P15303 whole entry, chain 1 of 2): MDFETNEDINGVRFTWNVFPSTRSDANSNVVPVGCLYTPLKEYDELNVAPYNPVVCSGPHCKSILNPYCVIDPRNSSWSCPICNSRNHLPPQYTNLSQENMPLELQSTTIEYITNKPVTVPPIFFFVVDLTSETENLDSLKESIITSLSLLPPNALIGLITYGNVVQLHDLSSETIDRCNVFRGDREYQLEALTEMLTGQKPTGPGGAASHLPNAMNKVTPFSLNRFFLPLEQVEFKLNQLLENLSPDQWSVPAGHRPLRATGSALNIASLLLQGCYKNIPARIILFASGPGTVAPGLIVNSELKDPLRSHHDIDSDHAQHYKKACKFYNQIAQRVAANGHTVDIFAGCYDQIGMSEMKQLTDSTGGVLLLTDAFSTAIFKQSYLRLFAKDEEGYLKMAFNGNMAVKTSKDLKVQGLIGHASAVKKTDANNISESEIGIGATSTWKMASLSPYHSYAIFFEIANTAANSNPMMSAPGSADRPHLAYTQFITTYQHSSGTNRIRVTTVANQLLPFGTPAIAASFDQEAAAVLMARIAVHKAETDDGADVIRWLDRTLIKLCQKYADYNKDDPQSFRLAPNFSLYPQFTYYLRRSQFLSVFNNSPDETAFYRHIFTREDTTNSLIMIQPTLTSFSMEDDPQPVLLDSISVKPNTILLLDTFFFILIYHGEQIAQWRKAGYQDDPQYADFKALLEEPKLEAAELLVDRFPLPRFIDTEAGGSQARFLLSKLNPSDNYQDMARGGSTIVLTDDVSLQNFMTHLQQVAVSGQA
Sequence of Sec23/24 complex (P40482 whole entry, chain 2 of 2): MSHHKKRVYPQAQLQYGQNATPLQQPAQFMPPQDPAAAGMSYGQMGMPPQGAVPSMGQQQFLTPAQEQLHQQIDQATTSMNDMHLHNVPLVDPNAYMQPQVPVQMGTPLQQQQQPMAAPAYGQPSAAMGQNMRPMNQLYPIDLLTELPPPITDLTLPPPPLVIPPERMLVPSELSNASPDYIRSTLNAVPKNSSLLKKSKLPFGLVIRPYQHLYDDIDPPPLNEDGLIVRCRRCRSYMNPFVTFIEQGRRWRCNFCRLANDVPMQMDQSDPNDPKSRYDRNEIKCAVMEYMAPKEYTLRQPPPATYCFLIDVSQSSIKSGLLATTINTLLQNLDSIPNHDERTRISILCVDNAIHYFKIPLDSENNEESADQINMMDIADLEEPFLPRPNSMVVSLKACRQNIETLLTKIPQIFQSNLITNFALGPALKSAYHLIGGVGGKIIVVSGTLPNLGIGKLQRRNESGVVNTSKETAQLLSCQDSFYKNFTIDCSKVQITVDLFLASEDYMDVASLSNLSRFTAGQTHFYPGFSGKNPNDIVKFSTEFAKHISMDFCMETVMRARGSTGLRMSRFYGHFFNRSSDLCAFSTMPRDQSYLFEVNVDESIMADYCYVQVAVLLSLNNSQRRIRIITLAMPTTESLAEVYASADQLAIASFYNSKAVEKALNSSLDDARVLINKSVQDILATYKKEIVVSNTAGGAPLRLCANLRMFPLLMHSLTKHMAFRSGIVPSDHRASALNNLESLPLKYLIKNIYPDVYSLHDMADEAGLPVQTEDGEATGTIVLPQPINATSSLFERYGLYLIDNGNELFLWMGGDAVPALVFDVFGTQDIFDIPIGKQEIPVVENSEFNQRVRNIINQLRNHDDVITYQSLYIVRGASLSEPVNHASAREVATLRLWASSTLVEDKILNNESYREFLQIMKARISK

In general, stoichiometry N refers to a count of units in the complex or per binding partner. As for MBP-Sec16-mOrange, P48415 1-2195, in assay [1], the stoichiometry N was 4 and 6.

B1: Sec13/31 complex (complex)
chain 1: MVVIANAHNELIHDAVLDYYGKRLATCSSDKTIKIFEVEGETHKLIDTLTGHEGPVWRVDWAHPKFGTILASCSYDGKVLIWKEENGRWSQIAVHAVHSASVNSVQWAPHEYGPLLLVASSDGKVSVVEFKENGTTSPIIIDAHAIGVNSASWAPATIEEDGEHNGTKESRKFVTGGADNLVKIWKYNSDAQTYVLESTLEGHSDWVRDVAWSPTVLLRSYLASVSQDRTCIIWTQDNEQGPWKKTLLKEEKFPDVLWRASWSLSGNVLALSGGDNKVTLWKENLEGKWEPAGEVHQ
chain 2: MVKLAEFSRTATFAWSHDKIPLLVSGTVSGTVDANFSTDSSLELWSLLAADSEKPIASLQVDSKFNDLDWSHNNKIIAGALDNGSLELYSTNEANNAINSMARFSNHSSSVKTVKFNAKQDNVLASGGNNGEIFIWDMNKCTESPSNYTPLTPGQSMSSVDEVISLAWNQSLAHVFASAGSSNFASIWDLKAKKEVIHLSYTSPNSGIKQQLSVVEWHPKNSTRVATATGSDNDPSILIWDLRNANTPLQTLNQGHQKGILSLDWCHQDEHLLLSSGRDNTVLLWNPESAEQLSQFPARGNWCFKTKFAPEAPDLFACASFDNKIEVQTLQNLTNTLDEQETETKQQESETDFWNNVSREESKEKPTVFHLQAPTWYGEPSPAAHWAFGGKLVQITPDGKGVSITNPKISGLESNTTLSEALKTKDFKPLINQRLVKVIDDVNEEDWNLLEKLSMDGTEEFLKEALAFDNDESDAQDDANNEKEDDGEEFFQQIETNFQPEGDFSLSGNIEQTISKNLVSGNIKSAVKNSLENDLLMEAMVIALDSNNERLKESVKNAYFAKYGSKSSLSRILYSISKREVDDLVENLDVSQWKFISKAIQNLYPNDIAQRNEMLIKLGDRLKENGHRQDSLTLYLAAGSLDKVASIWLSEFPDLEDKLKKDNKTIYEAHSECLTEFIERFTVFSNFINGSSTINNEQLIAKFLEFINLTTSTGNFELATEFLNSLPSDNEEVKTEKARVLIASGKSLPAQNPATATTSKAKYTNAKTNKNVPVLPTPGMPSTTSIPSMQAPFYGMTPGASANALPPKPYVPATTTSAPVHTEGKYAPPSQPSMASPFVNKTNSSTRLNSFAPPPNPYATATVPATNVSTTSIPQNTFAPIQPGMPIMGDYNAQSSSIPSQPPINAVSGQTPHLNRKANDGWNDLPLKVKEKPSRAKAVSVAPPNILSTPTPLNGIPANAASTMPPPPLSRAPSSVSMVSPPPLHKNSRVPSLVATSESPRASISNPYAPPQSSQQFPIGTISTANQTSNTAQVASSNPYAPPPQQRVATPLSGGVPPAPLPKASNPYAPTATTQPNGSSYPPTGPYTNNHTMTSPPPVFNKPPTGPPPISMKKRSNKLASIEQNPSQGATYPPTLSSSASPLQPSQPPTLASQVNTSAENVSHEIPADQQPIVDFLKEELARVTPLTPKEYSKQLKDCDKRLKILFYHLEKQDLLTQPTIDCLHDLVALMKEKKYKEAMVIHANIATNHAQEGGNWLTGVKRLIGIAEATLN
For B1, the binding result with Sec23/24 complex is listed as “binds”.
